This is an account of results in PMC6857237, “Design and structural characterisation of olfactomedin-1 variants as tools for functional studies” (BMC Molecular and Cell Biology, 2019).

The series deals with the molecule itself. In words: SEC-MALS; analytical Superdex200 Increase 10/300, room temperature, SEC buffer (150 mM NaCl, 2 mM CaCl2, 20 mM HEPES pH 7.5), 0.5 mL/min; aldolase as calibration standard.

B1: Olfm1^coil-Olf (olfactomedin-1 part of the coiled coil plus Olfactomedin domain, residues 212–478), disulfide-linked dimer (domain or fragment, mouse (Mus musculus))
chain: GSSNLEERLRACMQKLACGKLTGISDPVTVKTSGSRFGSWMTDPLAPEGDNRVWYMDGYHNNRFVREYKSMVDFMNTDNFTSHRLPHPWSGTGQVVYNGSIYFNKFQSHIIIRFDLKTEAILKTRSLDYAGYNNMYHYAWGGHSDIDLMVDENGLWAVYATNQNAGNIVISKLDPVSLQILQTWNTSYPKRSAGEAFIICGTLYVTNGYSGGTKVHYAYQTNASTYEYIDIPFQNKYSHISMLDYNPKDRALYAWNNGHQTLYNVTLFHAAA
modifications: N-linked glycans (8 per dimer, GntI-/- cells); inter-chain disulfide Cys221-Cys221; for crystallisation deglycosylated with Endo-H
notes: N-terminal residues left by the restriction site in the mature protein; Olfactomedin-1 (Olfm1), mouse, BMZ isoform cDNA as template, residues 212-478 (UNIPROT numbering); C-terminal VIRSDEL not included; includes Cys221; Only about a third of the expressed sample formed the disulfide-linked dimer; the dimer fraction was isolated by SEC and used; Secreted with a cystatin signal peptide (not in the …)
In general, stoichiometry N refers to a count of units in the complex or per binding partner. Consider B1, for which the “stoichiometry N” value is 2.
